Test results: PMC2794200

Target: GST-Trs33, bacterially expressed (S. cerevisiae) (UniProt Q99394)
Experiment: pull-down

UniProt Q99394, sequence (Q99394 whole entry): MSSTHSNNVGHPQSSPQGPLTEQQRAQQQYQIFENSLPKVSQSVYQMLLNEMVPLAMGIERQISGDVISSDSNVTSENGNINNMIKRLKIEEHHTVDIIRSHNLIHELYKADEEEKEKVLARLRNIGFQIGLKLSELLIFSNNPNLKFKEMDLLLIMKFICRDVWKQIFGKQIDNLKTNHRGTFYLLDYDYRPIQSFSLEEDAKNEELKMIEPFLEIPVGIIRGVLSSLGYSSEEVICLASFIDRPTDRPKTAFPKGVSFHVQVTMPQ

Trs130-HA, bacterially expressed (from UniProt Q03660 1-1102) (natural protein)
percent co-precipitated: 0.5%
